Test results from patent US20180250358A1, “GHRH AGONISTS FOR THE TREATMENT OF ISCHEMIC DISORDERS” (published 2018).
Non-standard residues stand in square brackets, D forms with d. No end group written: not given here. *: point of attachment. Desaminotyrosyl = O=C(CCc1ccc(O)cc1)*; NMeY = CN[C@@H](Cc1ccc(O)cc1)C(=O)O; Agmatine = N=C(N)NCCCCN*; Nle = CCCC[C@H](N)C(=O)O; Orn = NCCC[C@H](N)C(=O)O; Abu = CC[C@H](N)C(=O)O; Ava = NCCCCC(=O)O

T1: GHRH receptor of human pituitary membranes (human, UniProt Q02643)
T1 sequence: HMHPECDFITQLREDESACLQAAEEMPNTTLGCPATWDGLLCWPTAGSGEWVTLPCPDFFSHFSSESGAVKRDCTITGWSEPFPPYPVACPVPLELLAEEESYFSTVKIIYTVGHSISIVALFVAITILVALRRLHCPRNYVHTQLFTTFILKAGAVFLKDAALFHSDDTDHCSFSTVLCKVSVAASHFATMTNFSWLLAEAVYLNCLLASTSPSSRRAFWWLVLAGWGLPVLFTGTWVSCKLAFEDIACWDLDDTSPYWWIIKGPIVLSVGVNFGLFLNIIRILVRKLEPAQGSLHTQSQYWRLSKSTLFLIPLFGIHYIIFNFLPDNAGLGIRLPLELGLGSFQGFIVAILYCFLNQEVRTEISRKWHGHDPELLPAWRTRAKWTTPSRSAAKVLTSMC

B1: P-20361 [N-Me-Tyr^1, D-Ala^2, Gln^8, Orn^12, Abu^15, Orn^21, Nle^27, Asp^28, Agm^29]hGHRH(1-29)NH2 (peptide)
peptide: [NMeY][dA]DAIFTQSYR[Orn]VL[Abu]QLSAR[Orn]LLQDI[Nle]D[Agmatine]
B2: P-20367 [N-Me-Tyr^1, D-Ala^2, Orn^12, Abu^15, Orn^21, Nle^27, Asp^28, Agm^29]hGHRH(1-29)NH2 (peptide)
peptide: [NMeY][dA]DAIFTNSYR[Orn]VL[Abu]QLSAR[Orn]LLQDI[Nle]D[Agmatine]
B3: P-22327 [Dat^1, Gln^8, Orn^12, Abu^15, Orn^21, Nle^27, Asp^28, Apa^30]hGHRH(1-30)NH2 (peptide)
peptide: [Desaminotyrosyl]ADAIFTQSYR[Orn]VL[Abu]QLSAR[Orn]LLQDI[Nle]DR[Ava]-NH2
SMILES: CCCC[C@H](NC(=O)[C@@H](NC(=O)[C@H](CC(=O)O)NC(=O)[C@H](CCC(N)=O)NC(=O)[C@H](CC(C)C)NC(=O)[C@H](CC(C)C)NC(=O)[C@H](CCCN)NC(=O)[C@H](CCCNC(=N)N)NC(=O)[C@H](C)NC(=O)[C@H](CO)NC(=O)[C@H](CC(C)C)NC(=O)[C@H](CCC(N)=O)NC(=O)[C@H](CC)NC(=O)[C@H](CC(C)C)NC(=O)[C@@H](NC(=O)[C@H](CCCN)NC(=O)[C@H](CCCNC(=N)N)NC(=O)[C@H](Cc1ccc(O)cc1)NC(=O)[C@H](CO)NC(=O)[C@H](CCC(N)=O)NC(=O)[C@@H](NC(=O)[C@H](Cc1ccccc1)NC(=O)[C@@H](NC(=O)[C@H](C)NC(=O)[C@H](CC(=O)O)NC(=O)[C@H](C)NC(=O)CCc1ccc(O)cc1)[C@@H](C)CC)[C@@H](C)O)C(C)C)[C@@H](C)CC)C(=O)N[C@@H](CC(=O)O)C(=O)N[C@@H](CCCNC(=N)N)C(=O)NCCCCC(N)=O
B4: P-20351 [Ac-N-Me-Tyr^1, D-Ala^2, Gln^8, Orn^12, Abu^15, Orn^21, Nle^27, Asp^28, Agm^29]hGHRH(1-29)NH2 (peptide)
peptide: Ac-[NMeY][dA]DAIFTQSYR[Orn]VL[Abu]QLSAR[Orn]LLQDI[Nle]D[Agmatine]
SMILES: CCCC[C@H](NC(=O)[C@@H](NC(=O)[C@H](CC(=O)O)NC(=O)[C@H](CCC(N)=O)NC(=O)[C@H](CC(C)C)NC(=O)[C@H](CC(C)C)NC(=O)[C@H](CCCN)NC(=O)[C@H](CCCNC(=N)N)NC(=O)[C@H](C)NC(=O)[C@H](CO)NC(=O)[C@H](CC(C)C)NC(=O)[C@H](CCC(N)=O)NC(=O)[C@H](CC)NC(=O)[C@H](CC(C)C)NC(=O)[C@@H](NC(=O)[C@H](CCCN)NC(=O)[C@H](CCCNC(=N)N)NC(=O)[C@H](Cc1ccc(O)cc1)NC(=O)[C@H](CO)NC(=O)[C@H](CCC(N)=O)NC(=O)[C@@H](NC(=O)[C@H](Cc1ccccc1)NC(=O)[C@@H](NC(=O)[C@H](C)NC(=O)[C@H](CC(=O)O)NC(=O)[C@@H](C)NC(=O)[C@H](Cc1ccc(O)cc1)N(C)C(C)=O)[C@@H](C)CC)[C@@H](C)O)C(C)C)[C@@H](C)CC)C(=O)N[C@@H](CC(=O)O)C(=O)NCCCCNC(=N)N
B5: P-27401 [Dat^1, D-Ala^2, Gln^8, Orn^12, Abu^15, Orn^21, Nle^27, Asp^28, D-Arg^29]hGHRH(1-29)NH-CH3 (peptide)
peptide: [Desaminotyrosyl][dA]DAIFTQSYR[Orn]VL[Abu]QLSAR[Orn]LLQDI[Nle]D[dR]-NHMe
SMILES: CCCC[C@H](NC(=O)[C@@H](NC(=O)[C@H](CC(=O)O)NC(=O)[C@H](CCC(N)=O)NC(=O)[C@H](CC(C)C)NC(=O)[C@H](CC(C)C)NC(=O)[C@H](CCCN)NC(=O)[C@H](CCCNC(=N)N)NC(=O)[C@H](C)NC(=O)[C@H](CO)NC(=O)[C@H](CC(C)C)NC(=O)[C@H](CCC(N)=O)NC(=O)[C@H](CC)NC(=O)[C@H](CC(C)C)NC(=O)[C@@H](NC(=O)[C@H](CCCN)NC(=O)[C@H](CCCNC(=N)N)NC(=O)[C@H](Cc1ccc(O)cc1)NC(=O)[C@H](CO)NC(=O)[C@H](CCC(N)=O)NC(=O)[C@@H](NC(=O)[C@H](Cc1ccccc1)NC(=O)[C@@H](NC(=O)[C@H](C)NC(=O)[C@H](CC(=O)O)NC(=O)[C@@H](C)NC(=O)CCc1ccc(O)cc1)[C@@H](C)CC)[C@@H](C)O)C(C)C)[C@@H](C)CC)C(=O)N[C@@H](CC(=O)O)C(=O)N[C@H](CCCNC(=N)N)C(=O)NC
B6: P-22326 [N-Me-Tyr^1, D-Ala^2, Gln^8, Orn^12, Abu^15, Orn^21, Nle^27, Asp^28, Apa^30]hGHRH(1-30)NH2 (peptide)
peptide: [NMeY][dA]DAIFTQSYR[Orn]VL[Abu]QLSAR[Orn]LLQDI[Nle]DR[Ava]-NH2
modifications: N-terminus assumed
SMILES: CCCC[C@H](NC(=O)[C@@H](NC(=O)[C@H](CC(=O)O)NC(=O)[C@H](CCC(N)=O)NC(=O)[C@H](CC(C)C)NC(=O)[C@H](CC(C)C)NC(=O)[C@H](CCCN)NC(=O)[C@H](CCCNC(=N)N)NC(=O)[C@H](C)NC(=O)[C@H](CO)NC(=O)[C@H](CC(C)C)NC(=O)[C@H](CCC(N)=O)NC(=O)[C@H](CC)NC(=O)[C@H](CC(C)C)NC(=O)[C@@H](NC(=O)[C@H](CCCN)NC(=O)[C@H](CCCNC(=N)N)NC(=O)[C@H](Cc1ccc(O)cc1)NC(=O)[C@H](CO)NC(=O)[C@H](CCC(N)=O)NC(=O)[C@@H](NC(=O)[C@H](Cc1ccccc1)NC(=O)[C@@H](NC(=O)[C@H](C)NC(=O)[C@H](CC(=O)O)NC(=O)[C@@H](C)NC(=O)[C@H](Cc1ccc(O)cc1)NC)[C@@H](C)CC)[C@@H](C)O)C(C)C)[C@@H](C)CC)C(=O)N[C@@H](CC(=O)O)C(=O)N[C@@H](CCCNC(=N)N)C(=O)NCCCCC(N)=O
B7: P-25504 [Dat^1, D-Abu^2, Orn^12, Abu^15, Orn^21, Nle^27, Gab^30]hGHRH(1-30)NH2 (peptide)
peptide: YADAIFTNSYRKVLGQLSARKLLQDIMSRQ
modifications: Dat^1; D-Abu^2; Orn^12; Abu^15; Orn^21; Nle^27; Gab^30 (in place of Gln^30); C-terminal -NH2

molecular target: T1, GHRH receptor of human pituitary …; assay: competition vs 125I-JV-1-42, human pituitary membranes;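 also: pituitaries used were normal human glands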
Source text: Normal human pituitaries were purchased from the National Hormone and Peptide Program (A.F. Parlow, Los Angeles, County Harbor-UCLA Medical Center, Torrance, Calif.).

IC50 [nM] | relative affinity (binding potency) vs JI-38 [vs JI-38=1] | Binder
0.82 | 5.3 | B1
1.7 | 2.56 | B2
1.99 | 2.18 | B3
3.44 | 1.26 | B4
2.74 | 1.59 | B5
0.71 | 6.12 | B6
1.44 | 3.02 | B7

molecular target: T1, GHRH receptor of human pituitary …; assay: competition vs 125I-[His1,Nle27]hGHRH(1-32)NH2, human pituitary membranes
Source text: Normal human pituitary was purchased from the National Hormone and Peptide Program (UCLA Medical Center, Torrance, Calif.).

IC50 [nM] | relative affinity (binding potency) compared to JI-38 [vs JI-38=1] | relative affinity (binding potency) compared to hGHRH(1-29) | Binder
1.19 | 2.3 | 6.42 vs hGHRH(1-29)NH2=1 | B1
1.09 | 2.51 | 7.01 vs hGHRH(1-29)NH2=1 | B2
– | 1.34 | 3.75 vs hGHRH(1-29)NH2=1 | B3
3.87 | 0.71 | 1.98 vs hGHRH(1-29)NH2=1 | B4
2.6 | 1.05 | 2.94 vs hGHRH(1-29)NH2=1 | B5
0.98 | 2.8 | 7.81 vs hGHRH(1-29)NH2=1 | B6
2.85 | 0.96 | 2.68 vs hGHRH(1-29)NH2=1 | B7
